Test results taken from patent US9176064B2, “Bisubstrate fluorescent probes for protein kinase CK2” (University of Tartu, priority 2012, dated 2015).
Where a SMILES comes first, the peptide text is derived from it. [ ]: non-standard residue; d: D form. The star is where a group is joined. X1 = O=C(CCCCCCCn1cnc2c(Br)c(Br)c(Br)c(Br)c21)*

Legend:
Experiment in all cases: Kinase panel residual activity
Type in all cases: biochemical
Conditions in all cases: compound at 1 micromolar
PKD1 = target: T1, PKD1 (Homo sapiens, UniProt Q15139)
T1 sequence (Q15139 1-912): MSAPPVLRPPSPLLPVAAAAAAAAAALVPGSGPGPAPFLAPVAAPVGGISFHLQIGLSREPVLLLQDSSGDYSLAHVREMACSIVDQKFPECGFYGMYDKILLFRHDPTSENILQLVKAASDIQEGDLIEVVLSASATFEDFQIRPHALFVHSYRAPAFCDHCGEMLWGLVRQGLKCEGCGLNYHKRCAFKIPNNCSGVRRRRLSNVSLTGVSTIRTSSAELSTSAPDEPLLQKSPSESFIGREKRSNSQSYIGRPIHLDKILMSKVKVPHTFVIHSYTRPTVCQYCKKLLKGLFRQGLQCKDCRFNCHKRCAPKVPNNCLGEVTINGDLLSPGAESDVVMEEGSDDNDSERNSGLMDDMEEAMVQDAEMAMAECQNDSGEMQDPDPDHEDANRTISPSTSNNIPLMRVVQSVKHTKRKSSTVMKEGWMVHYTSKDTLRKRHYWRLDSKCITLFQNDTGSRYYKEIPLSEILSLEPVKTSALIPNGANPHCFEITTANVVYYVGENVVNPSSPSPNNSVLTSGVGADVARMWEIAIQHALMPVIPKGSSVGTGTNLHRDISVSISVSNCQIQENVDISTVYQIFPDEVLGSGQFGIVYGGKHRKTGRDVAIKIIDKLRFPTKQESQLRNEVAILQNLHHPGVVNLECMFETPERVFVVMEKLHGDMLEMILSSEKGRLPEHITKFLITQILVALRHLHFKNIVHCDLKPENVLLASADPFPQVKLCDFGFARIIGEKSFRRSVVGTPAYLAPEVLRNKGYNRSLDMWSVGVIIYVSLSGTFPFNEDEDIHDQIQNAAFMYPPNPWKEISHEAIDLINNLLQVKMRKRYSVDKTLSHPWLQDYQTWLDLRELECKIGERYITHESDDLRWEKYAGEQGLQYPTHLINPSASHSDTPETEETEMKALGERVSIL

RSK1 = RSK1 (Homo sapiens, UniProt Q15418)
IRAK1 = IRAK1 (Homo sapiens, UniProt P51617)
LKB1 = target: T2, LKB1 (Homo sapiens, UniProt Q15831)
T2 sequence (Q15831 1-433): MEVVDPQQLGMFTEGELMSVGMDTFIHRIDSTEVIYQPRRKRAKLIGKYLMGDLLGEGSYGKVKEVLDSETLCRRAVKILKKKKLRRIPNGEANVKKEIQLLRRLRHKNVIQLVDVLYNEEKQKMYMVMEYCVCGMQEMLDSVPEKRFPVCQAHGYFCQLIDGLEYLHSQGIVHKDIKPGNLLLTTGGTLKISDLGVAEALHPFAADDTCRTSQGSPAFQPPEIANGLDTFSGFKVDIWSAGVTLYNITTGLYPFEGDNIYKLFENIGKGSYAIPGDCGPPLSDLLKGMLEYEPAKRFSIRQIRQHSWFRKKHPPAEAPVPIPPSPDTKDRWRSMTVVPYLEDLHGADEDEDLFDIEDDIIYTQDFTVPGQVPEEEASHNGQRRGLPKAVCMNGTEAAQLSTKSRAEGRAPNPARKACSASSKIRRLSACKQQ
T2 sequence (Q7RTN6 1-431 partner): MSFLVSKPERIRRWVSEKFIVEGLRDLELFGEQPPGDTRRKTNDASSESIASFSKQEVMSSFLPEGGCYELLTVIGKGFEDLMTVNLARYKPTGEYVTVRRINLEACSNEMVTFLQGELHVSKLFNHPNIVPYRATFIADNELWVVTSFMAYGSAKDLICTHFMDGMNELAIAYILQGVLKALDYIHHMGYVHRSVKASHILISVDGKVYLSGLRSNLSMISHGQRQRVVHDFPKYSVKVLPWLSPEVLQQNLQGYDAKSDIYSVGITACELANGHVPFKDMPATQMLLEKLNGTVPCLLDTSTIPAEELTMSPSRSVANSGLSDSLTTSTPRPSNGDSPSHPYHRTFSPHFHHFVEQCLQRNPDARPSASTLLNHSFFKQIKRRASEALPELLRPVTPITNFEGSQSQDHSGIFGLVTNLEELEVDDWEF
T2 sequence (Q9Y376 1-341 partner): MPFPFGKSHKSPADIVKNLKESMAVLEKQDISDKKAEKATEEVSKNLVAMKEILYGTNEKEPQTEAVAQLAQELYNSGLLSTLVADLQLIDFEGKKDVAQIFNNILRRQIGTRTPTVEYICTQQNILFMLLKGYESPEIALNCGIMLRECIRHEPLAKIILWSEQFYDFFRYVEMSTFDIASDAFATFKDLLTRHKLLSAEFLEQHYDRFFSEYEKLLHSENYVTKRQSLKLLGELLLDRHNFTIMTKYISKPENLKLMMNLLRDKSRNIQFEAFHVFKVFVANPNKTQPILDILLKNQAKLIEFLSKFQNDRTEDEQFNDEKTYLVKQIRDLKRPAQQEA

TrkA = TrkA (Homo sapiens, UniProt P04629)
Chain of TrkA (P04629 33-796, species assumed): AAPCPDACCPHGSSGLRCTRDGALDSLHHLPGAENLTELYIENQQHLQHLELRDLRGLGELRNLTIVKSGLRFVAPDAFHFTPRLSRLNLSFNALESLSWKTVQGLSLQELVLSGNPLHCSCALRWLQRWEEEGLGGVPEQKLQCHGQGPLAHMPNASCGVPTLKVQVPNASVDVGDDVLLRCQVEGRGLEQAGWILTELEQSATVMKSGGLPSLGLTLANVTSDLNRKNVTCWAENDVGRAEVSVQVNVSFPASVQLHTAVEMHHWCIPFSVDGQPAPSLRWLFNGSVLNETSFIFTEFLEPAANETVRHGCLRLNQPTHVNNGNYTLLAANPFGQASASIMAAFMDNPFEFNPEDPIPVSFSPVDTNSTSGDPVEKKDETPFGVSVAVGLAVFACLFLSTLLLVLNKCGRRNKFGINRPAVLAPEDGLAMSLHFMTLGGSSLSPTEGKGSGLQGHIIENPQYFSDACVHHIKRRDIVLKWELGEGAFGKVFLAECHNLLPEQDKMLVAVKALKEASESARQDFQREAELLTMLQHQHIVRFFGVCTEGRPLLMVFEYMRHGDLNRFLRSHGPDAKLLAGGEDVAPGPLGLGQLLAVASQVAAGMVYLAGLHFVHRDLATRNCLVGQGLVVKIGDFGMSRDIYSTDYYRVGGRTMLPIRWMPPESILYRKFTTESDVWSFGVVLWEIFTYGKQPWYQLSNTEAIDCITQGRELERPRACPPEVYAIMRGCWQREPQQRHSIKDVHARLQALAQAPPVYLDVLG

Chain of IRAK1 (P51617 whole entry, species assumed): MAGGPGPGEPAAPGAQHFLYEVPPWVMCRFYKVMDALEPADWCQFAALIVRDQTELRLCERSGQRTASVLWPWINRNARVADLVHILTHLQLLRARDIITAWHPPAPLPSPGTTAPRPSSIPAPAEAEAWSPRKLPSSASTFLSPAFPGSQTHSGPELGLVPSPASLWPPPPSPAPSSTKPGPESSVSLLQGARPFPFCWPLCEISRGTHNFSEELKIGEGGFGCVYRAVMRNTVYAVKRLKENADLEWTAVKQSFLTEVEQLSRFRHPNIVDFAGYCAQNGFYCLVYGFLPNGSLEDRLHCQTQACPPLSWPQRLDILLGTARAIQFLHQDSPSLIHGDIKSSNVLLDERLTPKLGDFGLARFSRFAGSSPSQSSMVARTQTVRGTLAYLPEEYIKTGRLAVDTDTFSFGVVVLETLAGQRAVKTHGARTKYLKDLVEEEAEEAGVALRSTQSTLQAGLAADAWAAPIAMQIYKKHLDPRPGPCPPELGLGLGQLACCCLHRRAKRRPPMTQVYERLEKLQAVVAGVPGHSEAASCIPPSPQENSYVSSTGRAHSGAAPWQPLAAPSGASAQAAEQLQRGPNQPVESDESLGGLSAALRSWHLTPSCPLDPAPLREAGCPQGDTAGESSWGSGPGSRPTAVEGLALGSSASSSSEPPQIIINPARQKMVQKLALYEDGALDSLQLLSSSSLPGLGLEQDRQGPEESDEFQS
Chain of RSK1 (Q15418 whole entry, species assumed): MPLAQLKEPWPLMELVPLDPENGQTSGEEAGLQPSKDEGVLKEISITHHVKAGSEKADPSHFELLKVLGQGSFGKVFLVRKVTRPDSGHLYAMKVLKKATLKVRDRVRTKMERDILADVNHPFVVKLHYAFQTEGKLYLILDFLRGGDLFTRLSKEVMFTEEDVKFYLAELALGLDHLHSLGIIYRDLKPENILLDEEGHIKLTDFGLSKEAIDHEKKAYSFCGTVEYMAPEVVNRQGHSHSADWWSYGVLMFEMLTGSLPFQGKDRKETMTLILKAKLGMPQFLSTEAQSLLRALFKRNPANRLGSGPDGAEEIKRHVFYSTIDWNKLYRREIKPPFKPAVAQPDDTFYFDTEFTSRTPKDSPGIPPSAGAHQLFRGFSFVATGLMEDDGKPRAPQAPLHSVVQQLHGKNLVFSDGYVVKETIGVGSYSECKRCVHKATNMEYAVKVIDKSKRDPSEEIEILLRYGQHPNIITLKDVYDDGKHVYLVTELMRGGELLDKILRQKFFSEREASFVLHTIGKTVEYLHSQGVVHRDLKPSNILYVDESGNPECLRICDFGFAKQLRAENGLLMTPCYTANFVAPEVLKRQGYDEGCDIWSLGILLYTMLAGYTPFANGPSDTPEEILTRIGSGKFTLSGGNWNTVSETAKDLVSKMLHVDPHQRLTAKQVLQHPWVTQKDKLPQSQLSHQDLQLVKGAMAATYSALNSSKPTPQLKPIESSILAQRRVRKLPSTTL

NCCCC[C@H](NC(=O)[C@H](CC(=O)O)NC(=O)[C@H](CC(=O)O)NC(=O)[C@H](CC(=O)O)NC(=O)[C@H](CC(=O)O)NC(=O)[C@H](CC(=O)O)NC(=O)[C@@H](CC(=O)O)NC(=O)CCCCCCCn1cnc2c(Br)c(Br)c(Br)c(Br)c21)C(=O)O [TBBI-OcA-(D-Asp)-(L-Asp)5-(L-Lys)-OH] (X1-[dD]DDDDDK-OH)
remaining activity at 1 µM (PKD1): 72% | remaining activity at 1 µM (RSK1): 88% | remaining activity at 1 µM (IRAK1): 89% | remaining activity at 1 µM (LKB1): 96% | remaining activity at 1 µM (TrkA): 111%
